In general, Kd refers to the constant that tells how readily two partners part at equilibrium. High values mean lower affinity, low ones higher affinity. As usually defined, the koff is a measure of how fast the partners let go of each other. Broadly, the kon is the rate constant with which the complex forms. Higher therefore signals faster complex formation.

The target of the assay is T1, full-length PTX3 (#1826-TS; R&D Systems) (UniProt P26022 18-381).
T1 construct: bought protein; source: bought: R&D Systems (#1826-TS)
Description: SPR; BIAcore 3000; full-length PTX3 amine-coupled to a CM5 chip (4000-6000 RU); N-terminal CD44 as analyte; PBS pH 7.2, 10 μl/min, 1 min association, 2 min dissociation; 1:1 Langmuir model. The note with it: both partners purified. For orientation: Surface plasmon resonance follows binding to a sensor surface in real time, without labels.

T1 sequence (P26022 18-381): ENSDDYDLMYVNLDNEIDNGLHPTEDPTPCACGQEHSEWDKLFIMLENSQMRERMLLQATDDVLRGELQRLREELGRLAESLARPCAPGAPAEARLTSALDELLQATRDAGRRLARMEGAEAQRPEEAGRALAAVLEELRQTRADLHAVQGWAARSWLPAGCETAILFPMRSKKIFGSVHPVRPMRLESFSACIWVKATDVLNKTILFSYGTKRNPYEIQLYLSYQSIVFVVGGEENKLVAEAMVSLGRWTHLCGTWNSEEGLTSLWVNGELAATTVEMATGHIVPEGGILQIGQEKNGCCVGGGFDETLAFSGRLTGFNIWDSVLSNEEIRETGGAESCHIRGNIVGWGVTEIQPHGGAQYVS

B1: N-terminal of CD44 (#CD44-3961H; Creative Biomart) (domain or fragment)
chain: QIDLNITCRFAGVFHVEKNGRYSISRTEAADLCKAFNSTLPTMAQMEKALSIGFETCRYGFIEGHVVIPRIHPNSICAANNTGVYILTSNTSQYDTYCFNASAPPEEDCTSVTDLPNAFDGPITITIVNRDGTRYVQKGEYRTNPEDIYPSNPTDDDV
modifications: Bought protein with limits not printed. Limits are the conventional N-terminal hyaluronan-binding domain (Link domain plus flanks, mature start 21 to 178). This range covers the predicted PTX3 …
B1: the equilibrium dissociation constant (Kd) was found to be 21 nM, the koff came to 2.43e-06 s⁻¹ and the kon was determined as 130 M⁻¹ s⁻¹.

The values above are taken from paper PMC8797470, “Disruption of the pentraxin 3/CD44 interaction as an efficient therapy for triple‐negative breast cancers” (Clinical and Translational Medicine, 2022).
